# The nanobody polyreactivity screen of Harvey et al. (2022)
# Experiment: yeast display, Sf9 membrane polyspecificity reagent, FACS + sequencing; frameworks hold sequencing errors
# How it was run: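 A nanobody's polyreactivity label depends on the gate it was sorted from. Yeast display cells were stained with 10% biotinylated, detergent-solubilized Sf9 membrane reagent for 1 hour at 4 °C, enriched on streptavidin microbeads and sorted by FACS. The low and high (top ~1%) gates were set on anti-HA fluorescence for expression and streptavidin fluorescence for reagent binding.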
row,Sequence,polyreactivity (PSR sort gate)
1,QVQLVETGGGLVQAGGSLRLSCAASGITFERYVMGWYRQAPGKERELVAVITKRGGNTYYADSVKGRFTISRDNAKNTVYLQMNSLKPEDTSVYYCATRSGRSTGDYWGQGTQVTVSS,high polyreactivity
2,QVQLVETGGGLVQAGGSLRLSCAASGITFVKYAMGWYRQAPGKERELVAAISGSGGSTSYADSVKGRFTISRDNAKNTVYLQMNSLKPEDTAVYYCNKAIVRYPKTRDYWGQGTQVTVSS,low polyreactivity
3,QVQLVETGGGLVQAGGSLRLSCAASGLTFYDYAMGWYRQAPGKERELVADIDFNGGSTSYADSVKGRFTISRDNAKNTVYLQMNSLKPEDTAVYDCNTRDRGDVVTGLDYWGQGTQVTVSS,low polyreactivity
4,QVQLVETGGGLVQAGGSLRLSCAASGNHFSTYTMGGYRQAPGKERELVAAISTSGTSTYYADSVKGRFTISRDNAKNTVYLQMNSLKPEDTAVYYCAASYLRSSQRMDYWGQGTQVTVSS,low polyreactivity
5,QVQLVETGGGLVQAGGSLRLSCAASGNTFAGNAMGWYRQAPGKERELVAAISRSGVTTRYADSVKGRFTISRDNATNTVYLQMNSLKPEDTAVYYCNADPRLRQNRDYWGQGTQVTVSS,high polyreactivity
6,QVQLVETGGGLVQAGGSLRLSCAASGPFYPYYAMGSYRQAPGKERELVATISTAGSTNYADSVKGRFTISRDNATNTVYLQMNSLIPEDTAVYYCATRNTWYHRGYDYWGQGTQVPVSS,low polyreactivity
7,QVQLVETGGGLVQAGGSLRLSCAASGRIFWRNDMGWYRQAPGKERELVAAISGSGGSTSYADSVKGRFTISRDNAKNTVYLQLNSLKPEDTAVYYFAADSESVGYEYWGQGTQVTVSS,high polyreactivity
8,QVQLVETGGGLVQAGGSLRLSCAASGRIFYGNAMGWYRHAPGKERELVAAITRSGSSTYYADSVKGRFTISRDNAKNTVYLLMNSLKPEDTAVSYCAVKYFDYVGQYAYYYWGQGTQVTVSS,high polyreactivity
9,QVQLVETGGGLVQAGGSLRLSCAASGRTFTKYAMGWYRQAPGKERELVAAISGNGGSTHYADSVKGRFTISRDNAKNTVYLQMNSLKPEDTAVYYCAADHRHKSNSWGQGTQVTVSS,low polyreactivity
10,QVQLVETGGGLVQAGGSLRLSCAASGRTFVGNAKGWYRPAPGQERELVADITWSGDITYYADSVKGRFTISRDHAKNSVYLQMNSLKPEDTAVYYCAADYHRRRTDYDYWGQGTQVTVSS,low polyreactivity
11,QVQLVETGGGLVQAGGSLRLSCAASGRTLIGNAMGWYRQAPGKERELVAAISFRGTRTYYADSVKGRFTISRDNAKNTFYLQMNSLKPEDTAVYYCNVYTRDRGYDYWGQGTQVTVSS,high polyreactivity
12,QVQLVETGGGLVQAGGSLRLSCAASGRTLTCYAMGWYRQAPGKERELVAAISWSGGSTYYADSVKGRFTISRDNAKNTVYLQMYSLIPEDTAVYYCAADRVRSYFSRYYSTPLDYYWGQGTQVTVSS,high polyreactivity
13,QVQLVETGGGLVQAGGSLRLSCAASGRTMPYYAMGWYRQAPGKERELVATISSRGGSTYYADSVKGRFTISRDNAKNTVYLQMNSLKPEDTAVYYCAARGNTPRTRRYGYWGQGTQVTVSS,high polyreactivity
14,QVQLVETGGGLVQAGGSLRLSCAASGRTYSTYAMGWYRQAPGKERDLVADISWRGAPTYYADSVKGRFTISRDNAKNTVYLQIISQKPEYTAVYYFAAAPYGYLRYEYWGLGTQVTVSS,high polyreactivity
15,QVQLVETGGGLVQAGGSLRLSCAASGSIFGDNAMGWYRQAPGKERELVAAIDQSGDSTYYADSVKGRFTISRDNAKNTVYLQMNSLKPEDTAVYYCAAQSYDYWYDYDYWGQGTQVTVSS,high polyreactivity
16,QVQLVETGGGLVQAGGSLRLSCAASGSIFIYFAMGWYRQAPGKERELVAAIDRSGGNTYYADSVKGRFTLSRDYAKNTVYLQMNSLKPEDTAVYYCAALVHRRVQYDYWGQGTQVTVSS,high polyreactivity

row,Sequence,polyreactivity (PSR sort gate)
1,QVQLVETGGGLVQAGGSLRLSCAASGSIFKNNAMGGYRQAPGKERELVAAIRSYGGSTYYADSVKGRFTISRDNAKNTVYLQMKSLKPEDTAVYYCAARYRSYPTYYQYNYWGQGTQVTVSS,high polyreactivity
2,QVQLVETGGGLVQAGGSLRLSCAASGSIFQGYAMGWYRQAPGKERELVAGITSSGGSTHYADSVKGRFTISRDNAKNTVYLQMNSLKPEDTAVYDYWGQGTQVTVSS,low polyreactivity
3,QVQLVETGGGLVQAGGSLRLSCAASGSIFQYYAMGSYRQAPGKERELVAAISSGGRTNYADSVKGRFTISRENAKNSVYLQMNSLKPEDTAVYYCAAARYYYQVYRWEYDYWGQGTQVTVSS,high polyreactivity
4,QVQLVETGGGLVQAGGSLRLSCAASGSIFTYYAMGWYRQAPGKEREFVAGISWSGGRTYYADSVKGRFTISRDNAKNTVYLQMNSLKPEDTAVYYCAAEIHDRFDSWGQGTQVTVSS,low polyreactivity
5,QVQLVETGGGLVQAGGSLRLSCAASGSTFVSNAMGWYSQAPGKERELVAAISYIGGGTYYADSEKGRFTISRDNAKNTVYLQMNSLKPEDTAVYYCAAGTPYDLDDYCGQGTQVTVSS,low polyreactivity
6,QVQLVETGGGLVQAGGSLRLSCAASGSTFVYYAMGWYRQAPGKERELVAAISSGGNTKYADSVKGRFTISRDNAKNTVYLQMNSLKPEDTEVYYCARESQSYYDHDYWGQVTQVTVSS,low polyreactivity
7,QVQLVETGGGLVQAGGSLRLSCAASGSTFWYNAMGWYRQAPGKERELVAAISRSGATTYYADSVKGRFTISRDNAKNTVYLQMNSLKPEDTAVYYCNAVISPSSYVRNSDYWGQGTQVTVSS,low polyreactivity
8,QVQLVETGGGLVQAGGSLRLSCAASGSTFWYNAMGWYRQAPGKESELVAAISRSGATTYYADSVKGRFTISRDNAKNTVYLQMNSLKPEDTAVYYCNKVRQYRYRGYTFDYWGQGTQVSVSS,low polyreactivity
9,QVQLVETGGGLVQAGGSLRLSCAASGSTIYLYAAMGLYRQAPGKESELVAAISGSGGSTFYADSVKGRFTISRDNAKNTVYLQMNSLKPEDTAVYYCAADKRYPYETYRPSVSASDSWGQGTQVTVSS,low polyreactivity
10,QVQLVETGGGLVQAGGSLRLSCAASGYNLNSNAMGWYRQAPGKEREFVASITESGGTTYYADSVKGRFTISRDNAKNTVYLQMNSLKPEDTAVYYCAADLVDWWYSSDLYDYWGQGTQVTVSS,high polyreactivity
11,QVQLVETGGGLVQAGGSLRLSCAPSGSIFEYNGMGWYRQAPGKERELVAAITTTGTTDYADSVKGRFTISRDNAKNTVYLQMNSLKPEDTAVYYCAADYTYYYKGEYDYWGQGTQVTVSS,low polyreactivity
12,QVQLVETGGGLVQAGGSLRLSCAPSGSIFGLNAMGWYRQAPGKERELVAAINTDGDTYYADSVKGRFTISRDNAKNTVYLQMNSLIPEDTAVFYCAADYYWDPFDSNFGHVPQEYESWGQGTQVTVSS,low polyreactivity
13,QVQLVETGGGLVQAGGSLRLSCAPSGSTFNSNVMGWYRQAPGKERELLAAISRSGGNTYYADSVKGRFTISRDNAKNTVYLQMNSLKQEDTAVYYCNVVFFSYYHGAYRGYDYWGQGTQVTVSS,high polyreactivity
14,QVQLVETGGGLVQAGGSLRLSCPASGRTFAKYAMGRYRQAPGKERELVAAISDSGGSTYYEDSVKGRFTISRDNAKNTVYLQMNSLKPEDTAVYYCAADGRYTYYWGQGTQVTVSS,high polyreactivity
15,QVQLVETGGGLVQAGGSLRLSCSASRLTFVYYTMGWYRQAPGKERELVAAITSSGGSTYYADSLKGRFTISRDNAKNTVYLQMNSLKPEDTAVSYCNAYWTYEFPSYDYWGPGTQVTVSS,low polyreactivity
16,QVQLVETGGGLVQAGGSLRLSFAASGIISYHNAMGWYRQAPGKERELLAGITYSGGSTYYEDSVKGRFTISRVNAKNTVYLQMNSMKPEDTAVYFCAARVVYWTWSCLSKMDYWGQGTQVTVSS,high polyreactivity
